This passage reports stoichiometry N and fold luminescence intensity over TOP1-TOP1 or TOP1-TOP2 results from paper PMC4434903.

Assay [1] addresses full length TOP1-His (UniProt Q94AM1). The assay is described as follows: SEC; Superdex 200 gel filtration of cobalt-column purified His-tagged protein, no DTT; apparent MW by interpolation with conalbumin and aldolase; peak areas at A280.
Assay [2] has as its target T1, TOP2 fused to the N-terminal or the C-terminal half of Renilla luciferase, Q949P2.
T1 chain: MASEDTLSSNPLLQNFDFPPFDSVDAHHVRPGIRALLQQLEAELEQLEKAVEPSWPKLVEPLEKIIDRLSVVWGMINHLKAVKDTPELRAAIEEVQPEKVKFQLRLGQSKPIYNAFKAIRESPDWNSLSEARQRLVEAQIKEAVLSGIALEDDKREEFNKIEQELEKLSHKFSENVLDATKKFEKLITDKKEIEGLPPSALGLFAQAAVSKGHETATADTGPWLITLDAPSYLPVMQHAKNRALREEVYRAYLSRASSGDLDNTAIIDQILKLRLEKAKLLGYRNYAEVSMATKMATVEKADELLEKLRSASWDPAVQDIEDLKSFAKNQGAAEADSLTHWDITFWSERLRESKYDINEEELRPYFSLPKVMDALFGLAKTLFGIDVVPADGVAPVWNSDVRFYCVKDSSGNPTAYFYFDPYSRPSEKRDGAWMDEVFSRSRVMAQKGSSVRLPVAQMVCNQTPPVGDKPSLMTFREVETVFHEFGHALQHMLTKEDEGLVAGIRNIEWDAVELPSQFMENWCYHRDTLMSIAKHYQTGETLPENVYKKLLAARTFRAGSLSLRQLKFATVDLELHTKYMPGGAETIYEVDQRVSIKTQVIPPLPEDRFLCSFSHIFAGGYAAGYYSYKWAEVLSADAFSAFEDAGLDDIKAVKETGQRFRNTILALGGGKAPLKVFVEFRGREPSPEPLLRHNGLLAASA
The assay is described as follows: split reporter (BiFC, NanoBiT); split Renilla luciferase complementation in Arabidopsis protoplasts co-transformed with NLuc and CLuc fusions; luminescence read 12-16 h after transformation; with or without 100 or 200 uM SA (3 h). Particulars: remark: other sources report otherwise.

In assay [3] the target is T2, full length TOP2-His, Q949P2.
T2 chain: T1 chain
The assay is described as follows: SEC; Superdex 200 gel filtration of cobalt-column purified His-tagged protein, no DTT; apparent MW by interpolation with conalbumin and aldolase; peak areas at A280. Particulars: remark: other sources report otherwise.

What is called stoichiometry N is a count of units in the complex or per binding partner. For “full length TOP1-His (from UniProt Q94AM1 83-791) (enzyme)”, the stoichiometry N in assay [1] was found to be 2.

B1: TOP2 fused to the N-terminal or the C-terminal half of Renilla luciferase, Q949P2 1-701 (enzyme)
chain: T1 chain
With B1, in assay [2], the fold luminescence intensity over TOP1-TOP1 or TOP1-TOP2 came to 3.4 fold.

B2: full length TOP2-His, Q949P2 1-701 (enzyme)
chain: T1 chain
With B2, in assay [3], the stoichiometry N stood at 2.
